US6090911
Values belong to the binder of their own block, whether it stands above or below them.

Experiments:
[1] = target: T1, B1 basic leucine zipper protein; assay: urea denaturation followed by CD at 222 nm; difference in the free energies of unfolding at 50% unfolded
T1 sequence: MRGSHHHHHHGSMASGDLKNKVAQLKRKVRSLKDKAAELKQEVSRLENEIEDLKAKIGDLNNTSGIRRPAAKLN

[2] = target: T1, B1 basic leucine zipper protein; assay: urea denaturation followed by CD at 222 nm, two-state model; ΔGu from lnKd,u (dissociation of the dimers) extrapolated to zero denaturant
[3] = target: T1, B1 basic leucine zipper protein; assay: analytical ultracentrifugation of protein solutions (24 to 220 µM); self-association of B1 dimers to tetramers; 95% confidence limits printed as (1-6)
[4] = target: A1 acidic leucine zipper protein; assay: urea denaturation followed by CD at 222 nm; difference in the free energies of unfolding at 50% unfolded
[5] = target: T1, B1 basic leucine zipper protein; assay: urea denaturation of the equimolar mixture followed by CD at 222 nm; difference in the free energies of unfolding at 50% unfolded
[6] = target: A1 acidic leucine zipper protein; assay: urea denaturation followed by CD at 222 nm, two-state model; ΔGu from lnKd,u (dissociation of the dimers) extrapolated to zero denaturant
[7] = target: A1 acidic leucine zipper protein; assay: analytical ultracentrifugation of protein solutions (24 to 220 µM); self-association of A1 dimers to tetramers; 95% confidence limits printed as (50-112)
[8] = target: T1, B1 basic leucine zipper protein; assay: urea denaturation of the equimolar mixture followed by CD at 222 nm, two-state model; ΔGu from lnKd,u (dissociation of the dimers) extrapolated to zero denaturant

ΔΔGu [1]: 0.13 kcal/mol
ΔGu [2]: 12.6 kcal/mol
Dimer-Tetramer Kd [3]: 123 µM
B1: B1 basic leucine zipper protein (designed binder)
chain: T1 sequence

ΔΔGu [4]: 0 kcal/mol
ΔΔGu [5]: 2.75 kcal/mol
ΔGu [6]: 11.5 kcal/mol
Dimer-Tetramer Kd [7]: 76 µM
ΔGu [8]: 13.8 kcal/mol
B2: A1 acidic leucine zipper protein (designed binder)
chain: MRGSHHHHHHGSMASGDLENEVAQLEREVRSLEDEAAELEQKVSRLKNEIEDLKAEIGDLNNTSGIRRPAAKLN
